Values quoted from earlier work as cited in PMC7340539.

Target: CD47 (Homo sapiens) (UniProt Q08722)
Chain of UniProt Q08722 (Q08722 19-323): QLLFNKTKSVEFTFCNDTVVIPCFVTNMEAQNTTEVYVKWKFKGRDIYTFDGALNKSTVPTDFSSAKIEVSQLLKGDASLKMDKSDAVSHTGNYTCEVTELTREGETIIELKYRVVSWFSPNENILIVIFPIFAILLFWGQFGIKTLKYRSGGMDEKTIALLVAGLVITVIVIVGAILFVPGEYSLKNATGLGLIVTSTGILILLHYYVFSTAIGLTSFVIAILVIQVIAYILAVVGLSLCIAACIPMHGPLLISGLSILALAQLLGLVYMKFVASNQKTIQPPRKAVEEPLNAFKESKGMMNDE

Kd: 2000 nM
Substance: SIRPα ECD (from UniProt P78324)
